According to patent publication US20150132307A1 (Hoffmann-La Roche, published 2015):
Where a chain is given by its changes, count along the chain named. Each block holds one binder with its values, some of them ahead of it.

Tests used:
[1] = target: T1, recombinant human IL-17 (Peprotech #200-17) (human, UniProt Q16552 20-155); test: cell-based or functional assay
Human IL17C = target: T2, Human IL17C (human, UniProt Q9P0M4 19-197); test: ELISA on coated IL-17 subtype; OD relative to IL-17A binding (100)
T2 sequence: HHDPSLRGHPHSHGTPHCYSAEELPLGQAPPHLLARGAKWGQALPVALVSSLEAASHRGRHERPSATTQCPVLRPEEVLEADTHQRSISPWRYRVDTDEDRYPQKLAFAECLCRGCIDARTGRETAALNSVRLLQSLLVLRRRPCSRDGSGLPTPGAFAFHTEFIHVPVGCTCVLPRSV
Method: (§1) NUNC® Maxisorp plates (96-well) are coated with recombinant human IL-17 (Peprotech #200-17, www.peprotech.com) at a concentration of 0.5 μg/ml in PBS ([…]). Plates are incubated at 37° C. on an orbital shaker with agitation for 2 hours. Thereafter coating solution is removed and 100 μl/well PBSTC (phosphate buffered saline, 0.05% Tween®20, 2% chicken serum) is added. Plates are incubated at room temperature for 1 hour. […] The second antibody is diluted 1:10000 in PBSTC and plates are incubated for 1 hour at room temperature with agitation. Second antibody is removed, plates are washed three times with 200 μl/well PBST (phosphate buffered saline, 0.05% Tween®20) and 100 μl/well ABTS® (Roche Diagnostics GmbH) is added. Optical density is measured at 405/492 nm in relation to IL-17A binding (set as 100%). Binding to other human IL-17 subtypes (IL-17B, IL-17C, IL-17D, IL-17E and IL-17F) were performed with the same assay format.

Human IL17D = target: T3, Human IL17D (human, UniProt Q8TAD2 16-202, limits assumed); test: as above
T3 sequence: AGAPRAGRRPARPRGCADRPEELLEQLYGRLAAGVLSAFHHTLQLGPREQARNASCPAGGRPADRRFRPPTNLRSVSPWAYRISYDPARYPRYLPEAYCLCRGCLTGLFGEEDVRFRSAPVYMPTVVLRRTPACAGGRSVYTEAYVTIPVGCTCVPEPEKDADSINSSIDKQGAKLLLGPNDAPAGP
Method: as §1

Human IL17F = target: T4, Human IL17F (human, UniProt Q96PD4 31-163); test: as above
T4 sequence: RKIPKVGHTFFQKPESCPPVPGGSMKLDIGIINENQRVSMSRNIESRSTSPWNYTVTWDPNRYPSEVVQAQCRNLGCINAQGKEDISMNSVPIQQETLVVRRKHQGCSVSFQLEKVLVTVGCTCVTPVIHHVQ
Method: as §1

Human IL17B = target: T5, Human IL17B (human, UniProt Q9UHF5 21-180); test: as above
T5 sequence: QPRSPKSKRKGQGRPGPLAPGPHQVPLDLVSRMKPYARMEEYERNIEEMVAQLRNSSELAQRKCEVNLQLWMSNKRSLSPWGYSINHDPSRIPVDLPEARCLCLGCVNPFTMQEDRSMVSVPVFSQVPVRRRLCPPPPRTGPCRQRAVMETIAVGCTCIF
Method: as §1

[2] = target: T1, recombinant human IL-17 (Peprotech …); test: cell-based or functional assay; remark: listed apart in the source
human IL17A/A = human IL17A/A (human, UniProt Q16552 24-155, limits assumed); test: SPR (BIAcore T100), antibody captured by anti-human F(ab')2, IL17 as analyte, 25 C, apparent KD, 1:1 model
Method: (§2) Around 12000 resonance units (RU) of the capturing system (10 μg/ml goat anti human F(ab′)2; Order Code: 28958325; GE Healthcare Bio-Sciences AB, Schweden) were coupled on a CMS chip at pH 5.0 by using an amine coupling kit supplied by the GE Healthcare. The sample and system buffer was PBS-T (10 mM phosphate buffered saline including 0.05% Tween20) pH 7.4. The bispecific antibody was captured by injecting a 50 nM solution for 1 min at a flow of 10 μl/min. Association was measured by injection human IL17 in various concentrations in solution for 3 min at a flow of 30 μl/min starting with 50 nM in 1:1 dilutions. The dissociation phase was monitored for up to 5 min and triggered by switching from the sample solution to running buffer. The surface was regenerated by two times 60 sec. washing with a glycin pH 2.1 solution at a flow rate of 30 μl/min. Bulk refractive index differences were corrected by subtracting the response obtained from a goat anti human F(ab′)2 surface. Blank injections are also subtracted (=double referencing). For calculation of apparent KD and other kinetic parameters the Langmuir 1:1 model was used.

IL-17 F/F = target: T6, IL-17 F/F (human, UniProt Q96PD4 31-163); test: SPR (BIAcore T100), antibody captured by anti-human F(ab')2, IL17 as analyte, 25 C
T6 construct: read as the homodimer of IL17F
T6 sequence: T4 sequence
Method: as §2

IL-17 A/F = target: T7, IL-17 A/F (human, UniProt Q16552 24-155; Q96PD4 31-163); test: SPR (BIAcore T100), antibody captured by anti-human F(ab')2, IL17 as analyte, 25 C, 1:1 model
T7 construct: read as the heterodimer of IL17A and IL17F
Method: as §2

T1 sequence (Q16552 20-155 limits assumed): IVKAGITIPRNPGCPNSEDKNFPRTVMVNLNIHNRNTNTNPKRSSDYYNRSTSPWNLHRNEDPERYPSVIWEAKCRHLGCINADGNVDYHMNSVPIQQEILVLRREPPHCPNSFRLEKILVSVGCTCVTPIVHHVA
Sequence of human IL17A/A (Q16552 24-155 limits assumed): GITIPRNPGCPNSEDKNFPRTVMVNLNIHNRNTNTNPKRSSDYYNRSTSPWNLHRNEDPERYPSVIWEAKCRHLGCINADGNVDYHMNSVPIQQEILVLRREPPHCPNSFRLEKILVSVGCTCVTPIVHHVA
T7 sequence (Q16552 24-155 limits assumed, one chain of several): as the sequence (Q16552 24-155 limits assumed) above

- IL-6 IC50 [nM] per valency (IL-17 induced cytokine production, HFLS-RA) [1]: 3.56 nM
- IL-8 IC50 [nM] per valency (IL-17 induced cytokine production, HFLS-RA) [1]: 2.2 nM
- binding result (Human IL17C): no binding (tested: 10 µg/ml antibody)
- binding result (Human IL17D): no binding (tested: 10 µg/ml antibody)
- binding result (Human IL17F): no binding (tested: 10 µg/ml antibody)
- binding result (Human IL17B): no binding (tested: 10 µg/ml antibody)
- IL-8 Inhibition IC50 (nM) (CCD-25SK cells, IL-17A + TNF-alpha) [2]: 4.5 nM
B1: <IL17> 9C6-2B6-134 (antibody, V domains shown)
VH: EVQLVESGGGLVQPGGSLRLSCAASGFSLDSYGVHWVRQAPGKGLEWVSVIWSDGTTTYNSALKSRFTISRDNSKNTLYLQMNSLRAEDTAVYYCARDTHYRLYYYAMDYWGQGTTVTVSS
VL: DIVMTQSPLSLPVTPGEPASISCRSSQSLVHSNGDTYFHWYLQKPGQSPQLLIYKVSNRFSGVPDRFSGSGSGTDFTLKISRVEAEDVGVYYCSQTTHAPFTFGQGTKLEIK
notes: Humanized variant

- IL-6 IC50 [nM] per valency (IL-17 induced cytokine production, HFLS-RA) [1]: 1.62 nM
- IL-8 IC50 [nM] per valency (IL-17 induced cytokine production, HFLS-RA) [1]: 1.74 nM
- binding result (Human IL17C): no binding (tested: 10 µg/ml antibody)
- binding result (Human IL17D): no binding (tested: 10 µg/ml antibody)
- binding result (Human IL17F): no binding (tested: 10 µg/ml antibody)
- binding result (Human IL17B): no binding (tested: 10 µg/ml antibody)
- IL-8 Inhibition IC50 (nM) (CCD-25SK cells, IL-17A + TNF-alpha) [2]: 1.8 nM
- Kd (human IL17A/A): 0.18 nM
- Kd (IL-17 A/F): 0.26 nM
B2: <IL17> 9C6-2B6-136 (antibody, V domains shown)
VH: B1 VH with P41T, D72E, S74A, T77S, E88G
VL: B1 VL
notes: Humanized variant with HC136 and LC136
- binding result (IL-17 F/F): no binding (tested: IL17 injected starting with 50 nM)

- binding result (Human IL17C): no binding (tested: 10 µg/ml antibody)
- binding result (Human IL17D): no binding (tested: 10 µg/ml antibody)
- binding result (Human IL17F): no binding (tested: 10 µg/ml antibody)
- binding result (Human IL17B): no binding (tested: 10 µg/ml antibody)
B3: <IL17> 9C6-2B6 (antibody, V domains shown)
VH: QVQLKESGPGLVAPSQSLSITCTVSGFSLDSYGVHWVRQPPGKGLEWLVVIWSDGTTTYNSALKSRLSITKDNSKSQVFLKMNSLQTDDTAIYYCARDTHYRLYYYAMDYWGQGTSVTVSS
VL: DVVMTQTPLSLPVSLGDQASISCRSSQSLVHSNGDTYFHWYLQKPGQSPKLLIYKVSNRFSGVPDRFSGSGSGTDFTLKINRVEAEDLGVYFCSQTTHAPFTFGSGTKLEIK
notes: Mouse hybridoma antibody; also called mouse clone <IL17>9C6-2B6
